A word on the IC50: it is the concentration at which inhibition is half-maximal. Higher therefore signals weaker potency in that assay.

Chain of APJ (orphan G protein-coupled receptor protein) (P35414 whole entry): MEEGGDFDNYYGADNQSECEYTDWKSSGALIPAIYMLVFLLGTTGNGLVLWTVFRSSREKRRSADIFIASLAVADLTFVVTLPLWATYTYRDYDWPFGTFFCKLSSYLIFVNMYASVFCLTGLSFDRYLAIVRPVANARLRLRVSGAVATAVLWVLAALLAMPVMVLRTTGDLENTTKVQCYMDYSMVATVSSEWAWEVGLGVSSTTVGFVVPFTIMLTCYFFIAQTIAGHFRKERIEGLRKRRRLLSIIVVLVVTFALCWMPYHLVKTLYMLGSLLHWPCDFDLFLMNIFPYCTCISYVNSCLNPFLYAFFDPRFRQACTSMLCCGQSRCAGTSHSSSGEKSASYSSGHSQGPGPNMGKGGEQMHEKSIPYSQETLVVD

One test addresses APJ (orphan G protein-coupled receptor protein). Description: cell-based or functional assay.
As to “Arg-Pro-Arg-Leu-Ser-Ala-Arg-Gly-Gly-Met-Pro-Phe(Cl) (peptide)”, the EC50, inhibition of forskolin-stimulated cAMP production (CHO-A10 clone 6 cells) turned out to be 190 pM.
Same read-out and setting: with “Arg-Pro-Arg-Leu-Ser-Ala-Arg-Gly-Pro-Ala-Pro-Phe(Cl) (peptide)” the figure was 370 pM; with “pGlu-Arg-Pro-Arg-Leu-Ser-His-Lys-Gly-Pro-Met-Pro-Nal(2) (peptide)”, 400 pM.
The substance “Arg-Pro-Arg-Leu-Ser-Dap-Arg-Gly-Pro-Cha-Pro-Phe(Cl) (peptide)” had an EC50, inhibition of forskolin-stimulated cAMP production (CHO-A10 clone 6 cells) of 520 pM.
Same read-out and setting: the value for “Arg-Arg-Gln-Arg-Pro-Arg-Leu-Ser-Ala-Arg-Gly-Pro-Met-Pro-Phe(Cl)-NH2 (peptide)” was 320 pM; that for “Arg-Pro-Arg-Leu-Ser-Dap(Ac)-Arg-Gly-Pro-Cha-Pro-Phe(Cl) (peptide)” was 690 pM; that for “Arg-Pro-Arg-Leu-Phe-His-Lys-Gly-Pro-Met-Pro-Phe(Cl) (peptide)” was 380 pM.
With “Arg-Pro-Arg-Leu-Ser-His-Lys-Gly-Pro-Cha-Pro-Phe(Cl) (peptide)”, the EC50, inhibition of forskolin-stimulated cAMP production (CHO-A10 clone 6 cells) amounted to 410 pM.
“Arg-Pro-Arg-Leu-Ser-Ala-Arg-Gly-N-MeAla-Met-Pro-Phe(Cl) (peptide)” displayed an EC50, inhibition of forskolin-stimulated cAMP production (CHO-A10 clone 6 cells) of 270 pM.
“pGlu-Arg-Pro-Arg-Leu-Ser-His-Lys-Gly-Pro-Met-Phe(Cl) (peptide)” had an EC50, inhibition of forskolin-stimulated cAMP production (CHO-A10 clone 6 cells) of 430 pM.
Take “Arg-Pro-Arg-Leu-Ser-His-Lys-Gly-Pro-Met-Phe(Cl) (peptide)”: the EC50, inhibition of forskolin-stimulated cAMP production (CHO-A10 clone 6 cells) was determined as 160 pM.
“Arg-Pro-Arg-Leu-Ser-Ala-Arg-Gly-Pro-Met-Pro-Phe(Cl) (peptide)”: the EC50, inhibition of forskolin-stimulated cAMP production (CHO-A10 clone 6 cells) amounted to 320 pM.

The target is the same in the next test. In words: radioligand competition, compound of Ref. Ex. 2 as labelled ligand, CHO-A10 membrane fraction. (Loss of bound radioactivity is the signal in a displacement assay; it reports binding, not function.)
For “Arg-Pro-Arg-Leu-Ser-Ala-Arg-Gly-Gly-Met-Pro-Phe(Cl) (peptide)”, the IC50 turned out to be 290 pM.
On the same count and under the same terms, the value for “Arg-Pro-Arg-Leu-Ser-Ala-Arg-Gly-Pro-Ala-Pro-Phe(Cl) (peptide)” was 64 pM; that for “Arg-Pro-Arg-Leu-Ser-Dap-Arg-Gly-Pro-Cha-Pro-Phe(Cl) (peptide)” was 260 pM.
The substance “Arg-Arg-Gln-Arg-Pro-Arg-Leu-Ser-Ala-Arg-Gly-Pro-Met-Pro-Phe(Cl) (peptide)” returned an IC50 of 100 pM.
In turn, “Arg-Arg-Gln-Arg-Pro-Arg-Leu-Ser-Ala-Arg-Gly-Pro-Met-Pro-Phe(Cl)-NH2 (peptide)” gave an IC50 of 180 pM.
“Arg-Pro-Arg-Leu-Ser-Dap(Ac)-Arg-Gly-Pro-Cha-Pro-Phe(Cl) (peptide)” gave an IC50 of 110 pM.
“Arg-Pro-Arg-Leu-Phe-His-Lys-Gly-Pro-Met-Pro-Phe(Cl) (peptide)” displayed an IC50 of 66 pM.
Substance “Arg-Pro-Arg-Leu-Ser-Ala-Arg-Gly-N-MeAla-Met-Pro-Phe(Cl) (peptide)” returned an IC50 of 90 pM.
As to “pGlu-Arg-Pro-Arg-Leu-Ser-His-Lys-Gly-Pro-Met-Phe(Cl) (peptide)”, the IC50 was 480 pM.
“Arg-Pro-Arg-Leu-Ser-His-Lys-Gly-Pro-Met-Phe(Cl) (peptide)” yielded an IC50 of 170 pM.
Consider “Arg-Pro-Arg-Leu-Ser-Ala-Arg-Gly-Pro-Met-Pro-Phe(Cl) (peptide)”, for which the IC50 is 36 pM.

A further test has the same target. In words: radioligand competition, 125I-labelled compound of Ref. Ex. 1 (100 pM), CHO-A10 membrane fraction.
Turning to “Arg-Pro-Arg-Leu-Ser-Ala-Arg-Gly-Pro-Ala-Pro-Phe(Cl) (peptide)”, the IC50 stood at 370 pM.
Substance “Arg-Pro-Arg-Leu-Ser-Dap-Arg-Gly-Pro-Cha-Pro-Phe(Cl) (peptide)” yielded an IC50 of 520 pM.
Turning to “Arg-Arg-Gln-Arg-Pro-Arg-Leu-Ser-Ala-Arg-Gly-Pro-Met-Pro-Phe(Cl) (peptide)”, the IC50 was 200 pM.
In turn, “Arg-Arg-Gln-Arg-Pro-Arg-Leu-Ser-Ala-Arg-Gly-Pro-Met-Pro-Phe(Cl)-NH2 (peptide)” showed an IC50 of 320 pM.
“Arg-Pro-Arg-Leu-Ser-Dap(Ac)-Arg-Gly-Pro-Cha-Pro-Phe(Cl) (peptide)” registered an IC50 of 690 pM.
As to “Arg-Pro-Arg-Leu-Phe-His-Lys-Gly-Pro-Met-Pro-Phe(Cl) (peptide)”, the IC50 was determined as 8000 pM.
In turn, “Arg-Pro-Arg-Leu-Ser-His-Lys-Gly-Pro-Cha-Pro-Phe(Cl) (peptide)” had an IC50 of 1400 pM.
For “Arg-Pro-Arg-Leu-Ser-Ala-Arg-Gly-N-MeAla-Met-Pro-Phe(Cl) (peptide)”, the IC50 is 270 pM.
On the same count and under the same terms, the value for “Arg-Pro-Arg-Leu-Ser-Ala-Arg-Gly-Pro-Met-Pro-Phe(Cl) (peptide)” was 910 pM.

Values taken from patent US20040116336A1, “Peptide derivatives” (priority 2002, published 2004).
